Measurements: paper PMC7181051, “Probing the Protein-Protein Interaction between the ATRXADD Domain and the Histone H3 Tail” (Molecules, 2020)
Where no end group is shown, it is not given here. [ ]: non-standard residue; d: D form. Lys(Me3) = C[N+](C)(C)CCCC[C@H](N)C(=O)O

T1: ADD domain of ATRX (ATRXADD) (UniProt P46100 159-296)
T1 construct: ATRX, N-terminal ADD (ATRX-DNMT3-DNMT3L) domain; plasmid pGEX-GP-2-ATRX ADD from Addgene; that it comes from the GST fusion and not from the His-tagged one is surmised; also called ATRX-DNMT3-DNMT3L domain; source: E. coli BL21, purified (spin column, on-column thrombin cleavage)
T1 sequence (looked up): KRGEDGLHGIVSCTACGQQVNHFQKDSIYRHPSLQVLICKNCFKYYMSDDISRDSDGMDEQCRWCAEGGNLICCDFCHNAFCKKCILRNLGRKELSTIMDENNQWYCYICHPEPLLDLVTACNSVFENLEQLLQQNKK

B1: H3_(1-11)K9me3 peptide (peptide)
peptide: ARTKQTARKST
modifications: trimethyl-lysine at 9, printed K(me3)
notes: histone H3 tail; source: bought: GenScript
B2: H3_(1-11) A1L peptide (peptide)
peptide: LRTKQTAR[Lys(Me3)]ST
notes: histone H3 tail with A1 replaced; source: bought: GenScript
B3: H3_(1-11) A1V peptide (peptide)
peptide: VRTKQTAR[Lys(Me3)]ST
notes: as for B2
B4: H3_(1-16) peptide (peptide)
peptide: ARTKQTARKSTGGKAY
notes: as for B1
B5: H3_(1-10) peptide (peptide)
peptide: ARTKQTARKS
notes: as for B1
B6: H3_(1-11)K4me3K9me3 peptide (peptide)
peptide: ART[Lys(Me3)]QTAR[Lys(Me3)]ST
notes: as for B1

biological target: T1, ADD domain of ATRX (ATRXADD); experiment: fluorescence polarisation; competition: ATRXADD (5 μM) and H3_(1-15)K9me3-FAM (0.75 μM) incubated 15 minutes at room temperature, then unlabeled peptide at varying concentrations; PBS; 384-well plate; conditions: both partners purified

| IC50 | Binder |
| --- | --- |
| 7.6 ± 1.4 µM | B1 |
| 5.05 ± 0.7 µM | B2 |
| 4.3 ± 0.8 µM | B3 |
| 85.8 ± 19.3 µM | B4 |
| 94.8 ± 4.6 µM | B5 |
| ≥ 100 µM | B6 |
